From patent US20240009235A1 (published 2024)

Target: T1, Bob1 (gene POU2AF1) peptide on HLA-B*35:01 (human)
T1 peptide: APAPTAVVL
Test: multimer staining

B1: TCR 1C5.6 (TCR, V domains shown)
Valpha: AQSVTQLDSQVPVFEEAPVELRCNYSSSVSVYLFWYVQYPNQGLQLLLKYLSGSTLVESINGFEAEFNKSQTSFHLRKPSVHISDTAEYFCAVKVSNAGGTSYGKLTFGQGTILTVHP
Vbeta: DGGITQSPKYLFRKEGQNVTLSCEQNLNHDAMYWYRQDPGQGLRLIYYSQIVNDFQKGDIAEGYSVSREKKESFPLTVTSAQKNPTAFYLCASSIAQGADTQYFGPGTRLTVL
  binding result: no recognition
